{"source": "paper PMC5394239", "about": "(Nature Communications, 2017)", "biological_target": "the molecule itself", "test": "cryo-EM structure", "data": [{"protein": "SARS-CoV S ectodomain, uncleaved, trimerization motif and His tag removed by thrombin (domain or fragment) not shown", "values": [{"measurement": "stoichiometry N", "value": 3}]}]}
